Patent US20230287402A1 (University of Washington, published 2023)

Molecular target: T1, Di13_B2L2B4, cyclic pseudo-dihedral B component (construct number 2 of Table 3)
T1 construct: also called cyclic B
Test: negative stain TEM, unlabelled construct

B1: A component of design #13 (D3 homooligomer, designed from 1d2t) (designed binder)
chain: MGHHHHHHGGLALVATGNDTTTKPDLYYLKNSEAINSLALLPPPPAVGSIAFLNDQAMYEQGRLLRNTERGKLAAEDANLSSGGVANAFSGAFGSPITEKDAPALHKLLTNMIEDAGDLATRSAKDHYMRIRPFAFYGVSTCNTTEQDKLSKNGSYPSGHTSIGWATALVLAEINPQRQNEILKRGYELGQSRVICGYHWQSDVDAARVVGSAVVATLHTNPEFQAQLIKAKIEFKQHQKEL
notes: also called component A; dihedral A
  binding result: binds
